The values that follow come from FireProtDB (doi:10.1074/jbc.274.2.717).

For this data set the following is noted: Homo sapiens, pH 8.7, Thermal, DSC, reversible: yes, whole UniProt chain shown.

Where “and” joins values, the source holds several entries; their conditions need not be identical. Identical values can stand only once.

B1: Alpha-2-macroglobulin receptor-associated protein wild type, P30533 (protein)
chain: MAPRRVRSFLRGLPALLLLLLFLGPWPAASHGGKYSREKNQPKPSPKRESGEEFRMEKLNQLWEKAQRLHLPPVRLAELHADLKIQERDELAWKKLKLDGLDEDGEKEARLIRNLNVILAKYGLDGKKDARQVTSNSLSGTQEDGLDDPRLEKLWHKAKTSGKFSGEELDKLWREFLHHKEKVHEYNVLLETLSRTEEIHENVISPSDLSDIKGSVLHSRHTELKEKLRSINQGLDRLRRVSHQGYSTEAEFEEPRVIDLWDLAQSANLTDKELEAFREELKHFEAKIEKHNHYQKQLEIAHEKLRHAESVGDGERVSRSREKHALLEGRTKELGYTVKKHLQDLSGRISRARHNEL
A word on the Tm: it is the temperature at which the thermal transition is half complete. For the protein B1, under “Gly 20 mM, transition: 2”, the midpoint of thermal melting (Tm) stood at 65.8 °C. The “unfolding enthalpy (calorimetric)” value was 56 kcal/mol (Gly 20 mM, transition: 2); 45 kcal/mol and 41 kcal/mol and 59 kcal/mol (Glycine 20 mM, transition: 2); 42 kcal/mol and 41 kcal/mol (Glycine 20 mM, transition: 4).
